{
  "source": "paper PMC10992996",
  "about": "“Human CRB1 and CRB2 form homo- and heteromeric protein complexes in the retina” (Life Science Alliance, 2024)",
  "binders": {"B1": {"name": "Human canonical CRB2 (Crumbs homolog 2) (natural protein)", "chain": "not shown", "notes": "Crumbs homolog 2, human, cDNA NM_173689; Stood as bait (FLAG copy) and as prey (HA copy) in the pairwise co-IP matrix; each copy carries only one of the two tags; The FLAG copy was the bait of the mass spectrometry pull-downs; also called CRB2-FLAG; CRB2-HA; source: HEK293T, transfected, in lysate (co-IP); HEK293T, transfected, FLAG-IP on beads, washed and purified with 0.01% SDS (retina …)"}},
  "target": "T1, CRB1-FLAG p.C1174G (human, UniProt P82279 26-1406, p.C1174G)",
  "T1 construct": "Crumbs homolog 1, canonical form, human, cDNA NM_202153 as printed, with a patient missense mutation; Made by site-directed mutagenesis of m1; also called CRB1 p.C1174G; CRB1-FLAG MT; source: HEK293T, transfected, in lysate; not shown: Strep-Strep-FLAG, N-terminal, kept",
  "T1 sequence (looked up)": "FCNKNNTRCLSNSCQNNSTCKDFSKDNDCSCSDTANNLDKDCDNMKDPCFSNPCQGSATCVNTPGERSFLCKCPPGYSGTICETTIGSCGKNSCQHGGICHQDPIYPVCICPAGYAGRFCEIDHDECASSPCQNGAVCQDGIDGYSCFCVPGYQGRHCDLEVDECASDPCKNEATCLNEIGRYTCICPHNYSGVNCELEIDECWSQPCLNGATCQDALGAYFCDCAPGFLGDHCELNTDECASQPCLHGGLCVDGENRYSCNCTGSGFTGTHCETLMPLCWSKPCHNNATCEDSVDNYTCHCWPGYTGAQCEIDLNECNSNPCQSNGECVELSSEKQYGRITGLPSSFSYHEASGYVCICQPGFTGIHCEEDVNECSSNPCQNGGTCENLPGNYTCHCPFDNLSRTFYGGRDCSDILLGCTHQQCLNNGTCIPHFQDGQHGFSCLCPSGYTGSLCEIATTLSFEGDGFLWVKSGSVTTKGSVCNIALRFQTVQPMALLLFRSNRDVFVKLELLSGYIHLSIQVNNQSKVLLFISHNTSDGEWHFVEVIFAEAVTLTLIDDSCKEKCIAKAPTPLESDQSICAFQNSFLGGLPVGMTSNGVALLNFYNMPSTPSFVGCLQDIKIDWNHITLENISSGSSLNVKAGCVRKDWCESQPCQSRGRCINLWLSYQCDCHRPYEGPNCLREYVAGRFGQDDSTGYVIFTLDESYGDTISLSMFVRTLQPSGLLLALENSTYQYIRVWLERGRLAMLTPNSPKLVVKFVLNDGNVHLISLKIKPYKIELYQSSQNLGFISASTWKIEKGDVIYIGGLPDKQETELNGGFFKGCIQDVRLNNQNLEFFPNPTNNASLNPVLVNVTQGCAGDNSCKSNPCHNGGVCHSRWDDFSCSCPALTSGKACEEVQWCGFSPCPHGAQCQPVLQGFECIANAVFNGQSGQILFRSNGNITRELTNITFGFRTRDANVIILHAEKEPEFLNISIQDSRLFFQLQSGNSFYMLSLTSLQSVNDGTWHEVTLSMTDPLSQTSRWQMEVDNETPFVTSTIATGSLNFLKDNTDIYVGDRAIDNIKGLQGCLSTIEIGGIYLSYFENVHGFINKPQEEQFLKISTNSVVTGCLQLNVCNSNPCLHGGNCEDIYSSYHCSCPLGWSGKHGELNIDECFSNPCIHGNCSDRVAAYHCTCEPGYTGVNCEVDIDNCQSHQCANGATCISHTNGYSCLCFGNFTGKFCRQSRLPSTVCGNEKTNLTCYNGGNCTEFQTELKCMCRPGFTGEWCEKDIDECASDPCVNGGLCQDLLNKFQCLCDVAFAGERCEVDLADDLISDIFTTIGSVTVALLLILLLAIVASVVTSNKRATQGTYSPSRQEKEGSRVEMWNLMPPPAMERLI",
  "assay": "co-IP; HEK293T cells co-transfected pairwise with a FLAG and an HA construct, 48 h; lysis in TBS (30 mM Tris-HCl pH 7.4, 150 mM NaCl) with 0.5% Nonidet P40; FLAG-IP on ANTI-FLAG M2 Affinity Gel 60-90 min at 4°C, elution with FLAG peptide; Western blot with HA and FLAG antibodies; for mutants HA/FLAG signal in eluates relative to WT, three biological replicates",
  "conditions": "partners not purified",
  "data": [
    {"binder": "B1", "values": [
      {"measurement": "percent reduction of the interaction relative to CRB1 WT", "value": 17, "unit": "%"}
    ]}
  ]
}
